# What was measured:
# [1] = biological target: T1, L-selectin (LS-Rg) (Homo sapiens) (UniProt P14151); assay: filter
# T1 sequence: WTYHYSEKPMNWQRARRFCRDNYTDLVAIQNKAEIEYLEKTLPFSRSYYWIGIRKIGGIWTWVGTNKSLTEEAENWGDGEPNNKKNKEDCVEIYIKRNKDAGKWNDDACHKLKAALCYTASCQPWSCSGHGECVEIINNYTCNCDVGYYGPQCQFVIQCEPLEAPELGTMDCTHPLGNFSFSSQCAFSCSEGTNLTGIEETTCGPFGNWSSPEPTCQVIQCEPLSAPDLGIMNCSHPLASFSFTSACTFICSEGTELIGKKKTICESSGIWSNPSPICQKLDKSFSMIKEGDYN
# [2] = biological target: T2, P-selectin (PS-Rg) (Homo sapiens) (UniProt P16109); assay: filter
# T2 sequence: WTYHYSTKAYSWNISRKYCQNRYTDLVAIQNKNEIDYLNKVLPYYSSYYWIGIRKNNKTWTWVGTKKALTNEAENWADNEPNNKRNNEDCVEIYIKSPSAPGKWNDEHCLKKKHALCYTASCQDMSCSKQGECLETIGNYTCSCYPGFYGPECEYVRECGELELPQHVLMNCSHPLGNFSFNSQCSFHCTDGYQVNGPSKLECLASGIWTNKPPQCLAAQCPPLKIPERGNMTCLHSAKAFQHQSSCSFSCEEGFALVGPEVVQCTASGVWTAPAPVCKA
# [3] = biological target: CD22beta (CD22b-Rg) (UniProt P20273); assay: filter
# [4] = biological target: T3, E-selectin (ES-Rg) (Homo sapiens) (UniProt P16581); assay: filter
# T3 sequence: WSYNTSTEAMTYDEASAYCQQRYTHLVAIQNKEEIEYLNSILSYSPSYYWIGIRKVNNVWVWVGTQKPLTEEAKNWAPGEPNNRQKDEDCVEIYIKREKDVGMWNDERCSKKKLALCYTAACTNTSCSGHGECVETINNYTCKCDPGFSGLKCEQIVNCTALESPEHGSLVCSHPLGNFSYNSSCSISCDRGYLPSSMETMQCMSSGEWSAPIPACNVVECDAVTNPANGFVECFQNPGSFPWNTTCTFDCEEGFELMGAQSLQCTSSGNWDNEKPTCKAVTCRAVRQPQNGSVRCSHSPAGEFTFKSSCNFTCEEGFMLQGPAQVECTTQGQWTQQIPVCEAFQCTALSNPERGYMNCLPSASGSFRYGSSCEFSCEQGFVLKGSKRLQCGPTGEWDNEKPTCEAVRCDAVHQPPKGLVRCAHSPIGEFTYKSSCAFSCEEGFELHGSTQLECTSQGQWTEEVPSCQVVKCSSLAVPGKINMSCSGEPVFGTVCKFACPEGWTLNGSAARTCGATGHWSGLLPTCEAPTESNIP
# [5] = biological target: T4, Wheat germ agglutinin (WGA) (Triticum vulgare) (UniProt P10968); assay: filter
# T4 sequence: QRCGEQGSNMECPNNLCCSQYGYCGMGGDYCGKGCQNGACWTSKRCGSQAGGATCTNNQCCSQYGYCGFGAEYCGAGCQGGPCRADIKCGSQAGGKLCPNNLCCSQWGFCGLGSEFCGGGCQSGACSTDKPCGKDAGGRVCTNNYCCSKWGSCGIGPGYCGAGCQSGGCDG
# [6] = tested on: Datura stramonium lectin (Datura stramonium); assay: filter
# [7] = biological target: T5, soluble L-selectin (Homo sapiens) (UniProt P14151); assay: filter; conditions: 2'-F C and U, 37 C
# T5 sequence: T1 sequence
# [8] = biological target: T1, L-selectin (LS-Rg) (Homo sapiens); assay: inhibition; conditions: 2'-NH2 C and U; sialyl-LewisX competition ELISA
# [9] = biological target: T6, L-selectin on PBMC / lymphocytes (Homo sapiens) (UniProt P14151); conditions: 2'-NH2 on all C and U; PBMC binding on ice; competed by DREG-56
# T6 sequence: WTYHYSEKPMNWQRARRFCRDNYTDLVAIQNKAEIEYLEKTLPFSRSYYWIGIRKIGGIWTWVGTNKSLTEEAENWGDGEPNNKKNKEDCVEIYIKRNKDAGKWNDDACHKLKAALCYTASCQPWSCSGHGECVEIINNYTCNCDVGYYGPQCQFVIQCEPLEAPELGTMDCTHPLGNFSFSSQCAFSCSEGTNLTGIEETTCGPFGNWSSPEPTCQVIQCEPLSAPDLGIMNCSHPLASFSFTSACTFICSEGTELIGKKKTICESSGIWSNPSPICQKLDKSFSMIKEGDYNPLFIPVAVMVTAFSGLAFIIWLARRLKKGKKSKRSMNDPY
# [10] = 2'-NH2 C and U, <5% bound at 1 uM
# [11] = 2'-NH2 C and U, HBSS, room temperature
# [12] = 2'-NH2 on all C and U, 4 C, HSMC
sequence,measurement,setting,value
CTACCTACGATCTGACTAGCCGAGGATCTGATACTTATTGAACATAMCCGCACNCAGGCTTGCTTACTCTCATGTAGTTCC [LD102],Kd,[1]; 37 C,7.9 nM
CTACCTACGATCTGACTAGCCGAGGTAGTCGTTATAGGGTRCRCACGACACAAARCRGTRGCTTACTCTCATGTAGTTCC [LD127],Kd,[2]; room temperature,780 nM
same,Kd,[3]; <1% at 700 nM,> 100 µM
same,Kd,"[1]; room temp, 890 pM at 37 C",1 nM
same,Kd,[4]; room temperature,1.3 µM
same,Kd,[5]; <3% at […],> 100 µM
GGGAAAAGCGAAUCAUACACAAGAAAGGGAUGGGAUUGGGACGAGCGGCCAAGACUCGGCGGGAACGAAGGGUCCGCUCCGCCAGAGACCAACCGAGAA [WGA ligand 6.8],Kd,[6]; [10],> 20 µM
GGGAAAAGCGAAUCAUACACAAGACAGCGGCGGAGUCAGUGAAAGCGUGGGGGGYGCGGGAGGUCUACCCUGACGCUCCGCCAGAGACCAACCGAGAA [WGA ligand 6.14],Kd,"[5]; 2'-NH2 on all C and U, <5% bound at 1 uM WGA, estimate",> 20 µM
GGGAAAAGCGAAUCAUACACAAGACGGCUGUGUGGUGUUGGAGCGUCAUAGUAGGAGUCGUCACGAACCAAGGCGCUCCGCCAGAGACCAACCGAGAA [WGA ligand 11.24],Kd,[6]; [10],> 20 µM
GGGAAAAGCGAAUCAUACACAAGACUGGCAAGRAGUGCGUGAGGGUACGUUAGGGGUGUUUGGGCCGAUCGCAUGCUCCGCCAGAGACCAACCGAGAA [WGA ligand 11.7],Kd,"[5]; 2'-NH2 on all C and U, HBSS, room temperature",0.016 µM
GGGAAAAGCGAAUCAUACACAAGAGAGGUGRAUGGGAGAGUGGAGCCCGGGUGACUCGAGGAUUCCCGUGCUCCGCCAGAGACCAACCGAGAA [WGA ligand 11.3],Kd,[5]; [11],0.41 µM
GGGAAAAGCGAAUCAUACACAAGAGUAGGAGGUUCCAUCACCAGGACUCGGCGGGAACGGAAGGUGAUGSGCUCCGCCAGAGACCAACCGAGAA [WGA ligand 11.35],Kd,[5]; [11],0.09 µM
GGGAAAAGCGAAUCAUACACAAGANNNNNNNNNNNNNNNNNNNNNNNNNNNNNNNNNNNNNNNNNNNNNNNNNNGCUCCGCCAGAGACCAACCGAGAA [50N9 random 2'-NH2 RNA],Kd,"[5]; 2'-NH2 on all C and U, undetectable at 36 uM WGA monomer, p130 prints >4 uM",> 4000 µM
GGGAAAAGCGAAUCAUACACAAGAUUGGUCGUACUGGACAGAGCCGUGGUAGAGGGAUUGGGACAAAGUGUCAGCUCCGCCAGAGACCAACCGAGAA [WGA ligand 11.20],Kd,"[6]; 2'-NH2 on all C and U, specificity control",11.2 µM
GGGAGACAAGAAAUAAACNCUCAAGCCCCAAACGCAAGUGAGCAUCCGCAACAGGGAAGAAGACAGAUGAAUGAUUCGACAGGAGGCUCACAACAGGC [PA466],Kd,"[2]; 2'-NH2 C and U, 37 C",0.43 nM
GGGAGACAAGAAUAAACGCUCAAAAGGUGCCGGGUUGGAGGGGUAGCAAGAAAUGGCUAGGGCGCASGAUUCGACAGGNGGCUCACAACAGGC [PA339],Kd,"[2]; 2'-NH2 C and U, 37 C",13.5 nM
GGGAGACAAGAAUAAACGCUCAAAUCAACUAAACAACGCAGUCACGAGAACGACCGGKCUGACUCCGAAAGUUCGACAGGAGGCUCACAACAGGC [PA448],Kd,"[2]; 2'-NH2 on all C and U, 37 C",5 nM
GGGAGACAAGAAUAAACGCUCAACGAGUUCACAUGGGAGCAAUCUCCGAAUAAACAACACGCKAKCGCAAAUUCGACAGGAGGCUCACAACAGGC [PF424],Kd,"[2]; 2'-F C and U, HSMC, 37 C",0.0365 nM
GGGAGACAAGAAUAAACGCUCAAGUACRCAGUGAGCAGAAGCAGAGAGACUUGGGAUGGGAUGAAAUGGKCUUCGACAGGAGGCUCACAACAGGC [PA467],Kd,"[2]; 2'-NH2 C and U, 37 C",24 nM
GGGAGACAAGAAUAAACGCUCAANNNGAGGAAGGGCACGCAAGGAAACAAAACACAAAGCAGAAGUAGUAAGAUUCGACAGGAGGCUCACAACAGGC [PA465],Kd,"[2]; 2'-NH2 C and U, 37 C",> 50 nM
GGGAGACAAGAAUAAACNCUCAACGAAAUAGAAGGAACAGAAGAAUGGBGAWGNGGGAAAUGGCAACGAAUUCGACAGGNGGCUCACAACAGGC [PA321],Kd,"[2]; 2'-NH2 C and U, 37 C",8 nM
GGGAGACAAGAAUAAACNCUCAAGCCCCAAGCAAGUGAGCAUCCGCAACAGGGAAGAAGACAGACGAGUGAUUCGACAGGAGGCUCACAACAGGC [PA473],Kd,"[2]; 2'-NH2 C and U, 37 C",0.36 nM
GGGAGGACGAUGCGGAAGUGAAGCUAAAGCGGAGGGCCAUUCAGUUUCNCACCACAGACGACUCGCCCGA [F14.2],Kd,"[2]; 2'-NH2 C and U, HSMC, 4 C",450 nM
same,Kd,"[3]; 2'-NH2 C and U, <5% bound, 4 C",> 20 µM
same,Kd,"[1]; 2'-NH2 on all C and U, 4 C, 7.2 nM at room temp",1.8 nM
same,Kd,"[4]; 2'-NH2 C and U, HSMC, 4 C",1.9 µM
GGGAGGACGAUGCGGAAGUGAAGCUAAAGSGGAGGGCCACUCAGAAACGCACCACAGACGACUCGCCCGA [F14.13],Kd,"[1]; 2'-NH2 C and U, 4 C, biphasic (0.74), low affinity 270 nM",1.3 nM
GGGAGGACGAUGCGGACGUGUGUAUCRARUUUUCCGCUGUUUGUGCAGACGACUCGCCCGA [LF1718],Kd,[7],0.0064 µM
GGGAGGACGAUGCGGAUAYUCAGCUYGUGUKUUUUCDAUCUUCCCCAGACGACUCGCCCGA [LF1707],Kd,[7],0.00016 µM
GGGAGGACGAUGCGGCCGUACAUGGUAARCCUCGAAGGAUUCCCGGGAUGAUCCCCAGACGACUCGCCCGA [F14.27],Kd,"[1]; 2'-NH2 C and U, HSMC, 4 C",145 nM
GGGAGGACGAUGCGGGAGGAAUGGACWGCGUAUAUCGAGUUGCCUCAGACGACUCGCCCGA [LF1713],Kd,[7]; table prints SEQ 338,0.00022 µM
GGGAGGACGAUGCGGNNNNNNNNNNNNNNNNNNNNNNNNNNNNNNNNNNNNNNNNCAGACGACUCGCCCGA [40N7 random 2'-NH2 RNA],Kd,"[1]; 2'-NH2 on all C and U, random pool, estimate",10000 nM
GGGAGGACGAUGCGGUAACAACAAUCAAGGCGGGUUYACCGCCCCAGUAUGAGUACAGACGACUCGCCCGA [F14.12],IC50,[8],0.01 µM
same,Kd,[2]; [12],910 nM
same,Kd,"[3]; 2'-NH2 on all C and U, <5% bound at 660 nM protein",> 20 µM
same,Kd,"[1]; 2'-NH2 on all C and U, 4 C, HSMC (Ca, Mg), Table 9 prints 5.8 pM (4 C), 1.7 nM room temp",0.06 nM
same,Kd,[4]; [12],0.047 µM
same,Kd,[9],0.0013 µM
GGGAGGACGAUGCGGUCCAGAGCGUGAAGAUCAACGUCCCGGNGUCGAAGACAGACGACUCGCCCGA [F14.70],Kd,"[3]; 2'-NH2 C and U, <5% bound, 4 C",> 20 µM
same,Kd,"[1]; 2'-NH2 on all C and U, 4 C, biphasic, fraction 0.75, second Kd 254 nM",2 nM
same,Kd,"[4]; 2'-NH2 C and U, HSMC, 4 C",5.9 µM
GGGAGGACGAUGCGGUUAGCCUACACUCUAGGUUCAGUUUUCGAAUCUUCCACCGCWGACGACUCGCCCGA [LF1618],Kd,"[1]; 2'-F on all C and U, 37 C",9.6 nM
